2 molecules from patent US20250368742A1 (D2M BIOTHERAPEUTICS, published 2025) can be followed below.

The EC50 is the concentration needed to bring the measured effect to its halfway point. Broadly, the Kd is the free concentration of one partner at which half of the binding sites on the other are occupied at equilibrium, for simple one-to-one binding. The low end stands for tighter binding, the high end for weaker binding.

Positions count from the first letter of the chain named. Like-named read-outs stand apart in the source and are kept apart here.

Assay [1] has as its target T1, human MICA002 on cells (human).
T1 chain: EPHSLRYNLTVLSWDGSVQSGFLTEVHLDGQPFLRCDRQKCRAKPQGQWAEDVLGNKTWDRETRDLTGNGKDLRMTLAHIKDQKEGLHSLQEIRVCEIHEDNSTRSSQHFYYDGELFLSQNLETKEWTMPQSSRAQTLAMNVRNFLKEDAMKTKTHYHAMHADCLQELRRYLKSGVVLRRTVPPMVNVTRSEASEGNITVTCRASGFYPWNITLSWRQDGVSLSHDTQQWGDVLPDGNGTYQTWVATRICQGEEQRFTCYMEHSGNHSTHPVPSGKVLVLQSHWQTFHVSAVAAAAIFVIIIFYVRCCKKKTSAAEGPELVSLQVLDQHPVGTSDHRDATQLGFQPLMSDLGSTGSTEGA
The assay can be described thus: flow cytometry, CHO-MICA002 cells. On the technique in general: In flow cytometry, cells or beads pass a laser one at a time.
Procedure: CHO-MICA002 cells were incubated with titrated anti-MICA/B antibodies and then APC-labeled anti-human Fc antibody. […] The antibody binding signals of APC (gMFI) to MICA/B were measured by flow cytometry.
(§1) After an incubation time of 30 minutes, the plate was centrifuged and cells were washed with PBS three times. […] After mixing for 30 minutes at room temperature, cells were washed with PBS twice. Fluorescent signal was detected and quantified by flow cytometry (Attune™ CytPix™, ThermoFisher) within the population of live cells (viability dye PI negative).

Assay [2] addresses T2, human MICB005 on cells (human).
T2 construct: whole, on cells; also called CHO-MICB005; C1R-MICB005
Kind of assay: flow cytometry, CHO-MICB005 cells.
Procedure: IgG1 is an isotype control (IgG). The antibody binding signals of APC (gMFI) to MICA/B were measured by flow cytometry.
as §1

In assay [3] the target is T1, human MICA002 on cells. Kind of assay: flow cytometry, CHO-MICA002 cells.
In assay [4] the target is T3, human MICA004 on cells (human).
T3 construct: whole, on cells; also called CHO-MICA004; C1R-MICA004
Kind of assay: flow cytometry, CHO-MICA004 cells.

In assay [5] the target is T4, human MICA008 on cells (human).
T4 construct: whole, on cells; also called CHO-MICA008; C1R-MICA008
The assay can be described thus: flow cytometry, CHO-MICA008 cells.

Assay [6] addresses T2, human MICB005 on cells. The assay can be described thus: flow cytometry, CHO-MICB005 cells. This is another data set of the same source.
In assay [7] the target is T1, human MICA002 on cells. Kind of assay: flow cytometry, CHO-MICA002 cells.
For assay [8], the target named is T4, human MICA008 on cells. The assay can be described thus: flow cytometry, CHO-MICA008 cells. The source holds these as a separate data set.
Assay [9] has as its target T2, human MICB005 on cells. Kind of assay: flow cytometry, CHO-MICB005 cells. This is another data set of the same source.
In assay [10] the target is T5, MICA002-ECD-HISAvi (human, UniProt Q29983 24-308).
T5 construct: also called MICA002 polypeptide
T5 chain: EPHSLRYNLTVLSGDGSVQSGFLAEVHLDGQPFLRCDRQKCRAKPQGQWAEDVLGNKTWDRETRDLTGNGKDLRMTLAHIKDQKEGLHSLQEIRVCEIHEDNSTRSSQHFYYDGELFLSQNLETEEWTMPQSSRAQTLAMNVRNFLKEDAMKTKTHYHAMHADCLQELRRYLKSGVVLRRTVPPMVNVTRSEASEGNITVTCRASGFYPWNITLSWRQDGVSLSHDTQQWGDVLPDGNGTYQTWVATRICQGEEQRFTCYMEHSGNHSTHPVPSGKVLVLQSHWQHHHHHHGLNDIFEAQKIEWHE
The assay can be described thus: SPR (Carterra); antibody captured by anti-human Fc, monomeric ECD antigen injected.
Procedure: (§2) The dissociation kinetics were monitored for approximately 10 minutes. The chip surface was regenerated between binding cycles with 10 mM glycine HCl, pH 1.7. Binding kinetics were analyzed using software supplied by the manufacturer.

Assay [11] addresses T6, MICA004-ECD-HISAvi (human).
T6 construct: also called MICA004 polypeptide
T6 chain: T5 chain with G14W, C36Y, L122V, M129V, K173E, G175S, T181R, G206S, W210R, S215T
The description is as above.
Procedure: as §2

Assay [12] has as its target T7, MICA008-ECD-HISAvi (human).
T7 construct: Two sources under one name in the two kinetic assays; also called MICA008 polypeptide
T7 chain: T5 chain with G14W, C36Y, M129V, K173E, G206S, W210R, T213I, S215T, Q251R
The assay is described as above.
Procedure: as §2

Assay [13] concerns the target T8, MICB005-ECD-HISAvi (human, UniProt Q29980 24-309).
T8 construct: Two sources under one name in the two kinetic assays; also called MICB005 polypeptide
T8 sequence: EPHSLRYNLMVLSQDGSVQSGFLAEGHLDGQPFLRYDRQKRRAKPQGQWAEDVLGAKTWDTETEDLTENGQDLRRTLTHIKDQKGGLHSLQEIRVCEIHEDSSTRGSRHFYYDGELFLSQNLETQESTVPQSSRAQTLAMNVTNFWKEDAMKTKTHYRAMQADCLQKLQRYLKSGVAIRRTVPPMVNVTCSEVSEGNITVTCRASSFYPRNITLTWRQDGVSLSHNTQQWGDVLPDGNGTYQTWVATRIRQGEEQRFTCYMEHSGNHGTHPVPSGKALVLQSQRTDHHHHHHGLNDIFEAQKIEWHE
The assay is described as above.
Procedure: as §2

For assay [14], the target named is T2, human MICB005 on cells. Kind of assay: flow cytometry on CHO-MICB005 cells; column HSA_1w (1 week in human serum at 37 C).
Procedure: (§3) The plate was centrifuged, and cells were washed with PBS three times. […] After incubation for 30 minutes at room temperature, cells were washed with PBS twice. Signals of APC were determined by flow cytometry (Attune™ CytPix™, ThermoFisher) within the population of live cells (viability dye PI negative).
(§4) The EC50 values were calculated based on non-linear fitting curves by GraphPad Prism software.
In assay [15] the target is T2, human MICB005 on cells. Kind of assay: flow cytometry on CHO-MICB005 cells; column Control_1w (control of the 1-week experiment).
Procedure: as §3, §4
Assay [16] deals with T2, human MICB005 on cells. The assay can be described thus: flow cytometry on CHO-MICB005 cells; column Control_2w (control of the 2-week experiment).
Procedure: as §3, §4

T3 sequence (Q29983 whole entry): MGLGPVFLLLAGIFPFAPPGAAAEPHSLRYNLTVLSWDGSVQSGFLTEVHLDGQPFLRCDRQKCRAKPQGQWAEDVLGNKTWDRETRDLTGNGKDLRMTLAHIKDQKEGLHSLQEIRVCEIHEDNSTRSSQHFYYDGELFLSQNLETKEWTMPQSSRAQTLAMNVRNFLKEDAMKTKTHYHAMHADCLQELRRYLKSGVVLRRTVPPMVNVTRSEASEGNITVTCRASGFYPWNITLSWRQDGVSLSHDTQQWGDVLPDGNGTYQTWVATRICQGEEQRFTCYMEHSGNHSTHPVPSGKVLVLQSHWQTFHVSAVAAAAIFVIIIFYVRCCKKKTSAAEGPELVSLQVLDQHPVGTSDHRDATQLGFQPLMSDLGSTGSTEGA
T4 sequence (Q29983 whole entry): as above

B1: 1D5 (antibody, human IgG1, kappa, V domains shown)
VH: EIQLQQSGPELVKPGASVKVSCKASGYAFTSQNIYWVKQSHGKSLEWIGYIEPYNVVPMYNPKFKGKATLTVDKSSSSAYIHLNSLTSEDSAIYYCARSGSSNFDYWGQGTTLTVSS
VL: EIILTQSPTTMAASPGEKITITCSASSSISSHYLHWYQQKSGFSPKLLIYRTSNLASGVPARFSGSGSGTSYSLTIGTMEAEDVATYYCQQGSSLPLTFGAGTKVEIKR
notes: also called ID5
Turning to B1, the EC50 worked out at 0.19 µg/mL in assay [1]; 0.152 µg/mL in assay [2]; 0.209 µg/mL in assay [3]; 0.051 µg/mL in assay [4]; 0.04 µg/mL in assay [5]; 0.142 µg/mL in assay [6]. Also, the EC50 turned out to be 0.301 µg/mL in [7]; 0.06 µg/mL in assay [8]; 0.198 µg/mL in assay [9]; 0.229 µg/mL in assay [14]; 0.237 µg/mL in assay [15]; 0.264 µg/mL in assay [16]. For the same molecule, the dissociation constant Kd was determined as 0.032 nM in [10], 0.52 nM in assay [11], 0.269 nM in assay [12] and 0.96 nM in assay [13].

B2: 3F9 (antibody, human IgG1, kappa, V domains shown)
VH: QVQLVESGGGLVKPGGSLRLSCAASGFTFSNYAMSWIRQAPGKGLEWVSYISPGGDYIYYADSVKGRFTISRDNAKNSLYLQMNSLRAEDTAVYYCTTDRRHYGSYAMDYWGQGTLVTVSS
VL: DIVMTQSPLSLPVTPGEPASISCRSSKSLLHSNLNTYLYWFLQKPGQSPQILIYRMSNLASGVPDRFSGSGSGTAFTLKISRVEAEDVGVYYCMQHLEYPFTFGPGTKLEIKR
notes: also called benchmark 3F9
Consider B2, for which the EC50 in assay [1] was found to be 0.352 µg/mL; in assay [2] it was 0.572 µg/mL; in assay [7] it was 0.857 µg/mL; in assay [8] it was 0.272 µg/mL; in [9], 1.08 µg/mL; in assay [14], 0.804 µg/mL. The results for the EC50 in assay [15] and in assay [16] were 0.836 µg/mL and 0.956 µg/mL, respectively. The Kd in assay [10] worked out at 1.65 nM; in [11] it was 2.78 nM; in assay [12], 2 nM; in [13], 5.47 nM.
